Experimental data from patent US20230257454A1 (STAIDSON BEIJING BIOPHARMACEUTICALS, published 2023).

T1: human C5a (source not stated) (human, UniProt P01031 678-751)
T1 sequence: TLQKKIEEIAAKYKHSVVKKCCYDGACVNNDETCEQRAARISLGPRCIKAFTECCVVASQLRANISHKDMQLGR


These binders were tested against T1, human C5a (source not stated) (assay: cell-based or functional assay).

Binder	ROS IC50
Cab09 scFv (scFv, V domains shown) VH: EVQLVESGGGLVQPGGSLKVSCAASGFIFSDYYMQWVRQAPGKGPEWVGLIRKKVNGGTTEYAASVKGRFTISRDDSKSIAYLQMSSLKIEDTAVYYCVSRAGPPGLTWGQGVLVTISS VL: DIVMIQTPLSLPVTPGEPASISCRSSQSLLHSDGYTYVDWYLQKPGQSPQILIYGGSNRASGVPDRFSGSGSGTDFTLKITNVEAEDVGVYYCLQHKALPPTFGQGTKLEIK	1.54 nM
Cab06 scFv (scFv, V domains shown) VH: EVHLVESGGGLVQPGGSLKVSCAASGFIFSDYYMQWVRQAPGKGPEWVGLIRKKVNGGTTEYAASVKGRFTISRDDSKSIVYLQMSSLKIEDTAVYYCVSRAGPPGLTWGQGVLVTISS VL: DIVMIQNPLSLPVTPGEPASISCRSSQSLLASDGYNYMDWYLQKPGQSPKVLIYGGSNRASGVPDRFSGSGSGTDFTLKITKVEAEDVGIYYCMQHKVLPPTFGQGTKLEIK	1.03 nM
Cab08 scFv (scFv, V domains shown) VH: EVQLVESGGGLIQPGGSLRVSCAASGFTFSDYYLQWVRQAPGKGPEWVGLIRTKRYGGTSEYAASVKGRYTISRDDSKAIAYLQMSSLKTEDTAVYYCVVRIFTGLHWGKGTPVTVSS VL: DIVMTQTPLSRPVTPGEPASISCRSSQSLLHTDGYTYLDWYLQKPGQSPQLLIYGGSNRASGVPDRFSGSGSGTDFTLKISKVEAEDVGVYYCMQHKALPLTFGGGTKLEIK	1.29 nM
Cab11 scFv (scFv, V domains shown) VH: EVQLVESGGGLVQPGGSLRVSCAASGFRFSDFYMQWVRQAPGKRPEWVGLIRNKPYGGTAEYAASVKGRFTISRDDSKSVTDLQMSSLKTEDTAIYYCVMRNNGYHWGQGVLVTISS VL: DAVMTQIPLSLPVTPGEPASISCRSSQSLLHTDGYTYLDWYLQKPGQSPQLLIYGGSNRASGVPDRFSGSGSGTDFTLKISKVEAEDVGVYYCMQHKALPPTFGGGTKLEIK	1.57 nM
Cab16 scFv (scFv, V domains shown) VH: EVHLVESGGGLVQPGGSLKVSCAASGFTFSDYYMQWVRQAPGKGPEWVGLIRNKAIGETTEYAASVKGRFTISRDDSKSIVYLQMSSLKPEDTAVYYCAGRLGPPGLSWGQGVLVTVSS VL: DAVMTQIPLSLPVTPGEPASISCRSSQSLLHTDGYTYLDWYLQKPGQSPQLLIYGGSNRASGVPDRFSGSGSGTDFTLKISKVEAEDVGVYYCMQHKALPLTFGGGTRLEIK	0.87 nM
Cab07 scFv (scFv, V domains shown) VH: DVQLVESGGGLVQPGGSLKVSCAASGFTFSDYYMQWVRQAPGKGPEWVGLIRNKAIGETTEYAASVKGRFTISRDDSKSIVYLQMSSLKTEDTAVYYCVSRAGPPGLSWGQGVLVTISS VL: DTVMTQIPLSLSVTPGEPASISCRSSQRLLHTDGYTYLDWYHQKPGQSPQLLIYGGSNRASGVPDRFSGSGSVTDFTLKISKMEAEDVGVYYCMQHKALPPTFGGGTKLEIK	1.07 nM
Cab10 scFv (scFv, V domains shown) VH: QVQLVESGGGLVQPGGSLKVSCAASGFIFSDYYMQWVRQAPGKGPEWVGLIRKKVNGGTTEYAASVKGRFTISRDDSKSIVYLQMSSLKIEDTAVYYCVSRAGPPGLTWGQGVLITVSS VL: DTVMSQIPLSLPVTPGEPASISCRSSQSLLHTDGYIYLDWYLQKPGQSPQLLIYGGSNRASGVPDRFSGSGSGTDFTLKISKVEAEDVGVYYCMQHKALPLTFGGGTKLEIK	2.02 nM
Cab12 scFv (scFv, V domains shown) VH: VVQLVESGGGLVQPGGSLKVSCAASGFTFSDYYMQWVRQAPGKGPEWVGLIRNKAIGETTQYAASVKGRFTISRDDSKSIVYLQMSSLKTEDTAVYYCVSRAGPPGLSWGQGVLVTISS VL: DIVLTQTPLSLPVTPGEPASISCRSSQRLLHSDGYTYMDWYLQKPGQSPQILIYGGSNRASGVPDRFSGSGSGTDFTLKISKVEAEDVGVYYCMQHKALPPTFGQGTKLEIK	1.22 nM

Continued, values first:

ROS IC50	Binder
0.81 nM	Cab20 scFv (scFv, V domains shown) VH: EVQLVESGGGLVQPGGSLKVSCAASGFTFRDYYMQWVRQAPGKGPEWVGLIRNKAIGETAEYAASVKGRFTISRDDSKSIVYLQMSSLKTEDTAVYYCTSRAGPPGLSWGQGVLVTVSS VL: DIVMIQNPLSLPVTPGEPASISCRSSQSLLHSDGYTYLDWYLQKPGQSPQLLIYGGSNRASGVPDRFSGSGSGTDFTLKISKVEAEDVGVYYCMQHKVLPLTFAGGTKLEIK
1.21 nM	Cab27 scFv (scFv, V domains shown) VH: EVQLVQSGGGLVQPGGSLKVSCAASGFTFRDYYMQWVRQAPGKGPEWVGLIRNKAIGGTTQYAASVKGRFTISRDDSKSIVYLQMSSLKTEDTAVYYCVSRAGPPGLSWGQGVLVTVSS VL: DAVMTQTPLSLPVTPGEPASISCRSSQSLLASDGYNYIDWYLQRPGQSPKVLIYGGSNRASGVPDRFSGSGSGTYFTLKISKVEAEDVGFYFCLQHRALPPTFGQGTKLEIK
0.98 nM	Cab28 scFv (scFv, V domains shown) VH: DMQLVESGGGLVQPGGSLKVSCAASGFTFSDYYMQWVRQAPGKGPEWVGLIRNKAVGGTTQYAASVKGRFTISRDDSKSIVYLEMSSLKTEDTAVYYCVSRAGPPGLSWGQGVLVTVSS VL: DIVMIQNPLSLPVTPGEPASISCRSSQNLLATDGYTYLDWYLQKPGQSPQVLIYGGSKRASGVPDRFSGSGSGTDFTLKISKVEAEDVGIYYCLQHRALPPTFGQGTKLEIK
0.91 nM	Cab22 scFv (scFv, V domains shown) VH: VVQLVESGGGLVQPGGSLKVSCTASGFIFNDYYMQWVRQAPGKGPEWVGLIRNKANGGTTEYAASVKGRFTISRDDSKSIVYLQMSSLKTEDTAVYFCTGRLGPPGLTWGQGVLVTISS VL: DAVMTQTPLSLPVTPGEPASISCRSSQSLLASDGYNYIDWYLQRPGQSPKVLIYGGSNRASGVPDRFSGSGSGTYFTLKISKVEAEDVGFYFCLQHRALPPTFGQGTKLEIK
1.13 nM	Cab26 scFv (scFv, V domains shown) VH: EVQLVESGGGLVLPGGSLKVSCAASGFIFSDYYIQWVRQAPGKGPEWVGLIRNKAVGETVQYAASLKGRFTISRDDSKSIAYLQMTSLKTEDTAMYYCVSRAGPPGLTWGQGVLVTISS VL: DAVMTQTPLSLPVTPGEPASISCRSSQSLLASDGYNYIDWYLQRPGQSPKVLIYGGSNRASGVPDRFSGSGSGTYFTLKISKVEAEDVGFYFCLQHRALPPTFGQGTKLEIK
0.54 nM	Cab25 scFv (scFv, V domains shown) VH: EVQLVESGGGFVQPGGSLKVSCVASGFTFSDYYIQWVRQAPGKGPEWVGLIRNKAVGGTTTYAASVKGRFTISRDDSKSVAYLQMTSLKTEDTAVYFCVSRAGPPGLSWGQGVLVTISS VL: DAVMTQTPLSLPVTPGEPASISCRSSQSLLASDGYNYIDWYLQRPGQSPKVLIYGGSNRASGVPDRFSGSGSGTYFTLKISKVEAEDVGFYFCLQHRALPPTFGQGTKLEIK
1.44 nM	Cab24 scFv (scFv, V domains shown) VH: VVQLVESGGGLVQPGGSLKVSCAASGFIFSDYYMQWVRQAPGKGPEWVGLIRKKVNGGTTEYAASVKGRFTISRDDSKSIVYLQMSSLKIEDTAVYYCVSRAGPPGLAWGQGVLVTISS VL: DAVMTQTPLSLPVTPGEPASISCRSSQSLLASDGYNYIDWYLQRPGQSPKVLIYGGSNRASGVPDRFSGSGSGTYFTLKISKVEAEDVGFYFCLQHRALPPTFGQGTKLEIK
0.92 nM	Cab23 scFv (scFv, V domains shown) VH: EVQLVESGGGLVQPGGSLRLSCAASGFTFSDYYIQWVRQAPGKGPEWVGLIRNKAIGGTVEYAASVKGRFTISRDDSKRIAYLQMRSLKTEDTAVYFCTGRVGPPGLTWGQGVLVTISS VL: DAVMTQTPLSLPVTPGEPASISCRSSQSLLASDGYNYIDWYLQRPGQSPKVLIYGGSNRASGVPDRFSGSGSGTYFTLKISKVEAEDVGFYFCLQHRALPPTFGQGTKLEIK
